This note sets out measurements from article PMC314469, “Protein Interaction Networks by Proteome Peptide Scanning” (PLoS Biology, 2004).

T1: Yfr024 SH3 (LSB3_YEAST), P43603
T1 chain: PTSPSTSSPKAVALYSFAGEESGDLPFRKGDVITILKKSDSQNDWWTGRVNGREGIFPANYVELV

T2: Boi1 SH3 (BOI1_YEAST), P38041
T2 chain: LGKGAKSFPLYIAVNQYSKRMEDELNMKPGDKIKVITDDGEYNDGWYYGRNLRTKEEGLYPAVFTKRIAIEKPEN

T3: Yhr016c SH3 (YSC84_YEAST), P32793
T3 chain: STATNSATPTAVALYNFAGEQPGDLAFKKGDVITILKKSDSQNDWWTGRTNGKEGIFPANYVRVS

T4: Rvs167 SH3 (RV167_YEAST), P39743
T4 chain: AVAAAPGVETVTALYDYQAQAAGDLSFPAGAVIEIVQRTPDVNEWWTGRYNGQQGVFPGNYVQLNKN

T5: Boi2 SH3 (BOI2_YEAST), P39969
T5 chain: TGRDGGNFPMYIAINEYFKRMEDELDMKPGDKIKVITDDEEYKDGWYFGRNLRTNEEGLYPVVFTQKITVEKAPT

One test concerns the target T1, Yfr024 SH3 (LSB3_YEAST), P43603. In words: SPOT array.
Consider FPYPGNPLKIINYE [YGR233C 862-875], for which the normalised SPOT signal, Boehringer light units (BLU); mean over the file's lines of this peptide was 49.4.

Take FRFPRLPQKKKEEL [YGL130W 106-119]: the normalised SPOT signal, Boehringer light units (BLU); mean over the file's lines of this peptide amounted to 19500.

On to FPYPFKPSRVGVKY [YGL131C 440-453], for which the normalised SPOT signal, Boehringer light units (BLU); mean over the file's lines of this peptide stood at 2790.

For the molecule FSKPQEPVKAEEAE [YCR088W 393-406], the normalised SPOT signal, Boehringer light units (BLU); mean over the file's lines of this peptide amounted to 276.

FPFPTPPDRVALSK [YMR128W 865-878] had a normalised SPOT signal, Boehringer light units (BLU); mean over the file's lines of this peptide of 834.

As for FQPPPKPFRRSQSS [YBR108W 657-670], the normalised SPOT signal, Boehringer light units (BLU); mean over the file's lines of this peptide was 45100.

FPDPNNPSKVQIRM [YAL051W 375-388] yielded a normalised SPOT signal, Boehringer light units (BLU); mean over the file's lines of this peptide of 98.1.

In the case of FREPDLPRKGLLED [YJR054W 476-489], the normalised SPOT signal, Boehringer light units (BLU); mean over the file's lines of this peptide is 1350.

A further test deals with T2, Boi1 SH3 (BOI1_YEAST), P38041. Kind of test: SPOT array.
The molecule FPYPGNPLKIINYE [YGR233C 862-875] gave a normalised SPOT signal, Boehringer light units (BLU); mean over the file's lines of this peptide of 125.

Consider FRFPRLPQKKKEEL [YGL130W 106-119], for which the normalised SPOT signal, Boehringer light units (BLU); mean over the file's lines of this peptide stood at 105.

FPYPFKPSRVGVKY [YGL131C 440-453]: the normalised SPOT signal, Boehringer light units (BLU); mean over the file's lines of this peptide turned out to be 178.

FSKPQEPVKAEEAE [YCR088W 393-406] showed a normalised SPOT signal, Boehringer light units (BLU); mean over the file's lines of this peptide of 76.7.

In turn, FPFPTPPDRVALSK [YMR128W 865-878] yielded a normalised SPOT signal, Boehringer light units (BLU); mean over the file's lines of this peptide of 52.4.

Turning to FQPPPKPFRRSQSS [YBR108W 657-670], the normalised SPOT signal, Boehringer light units (BLU); mean over the file's lines of this peptide is 800.

FPDPNNPSKVQIRM [YAL051W 375-388] had a normalised SPOT signal, Boehringer light units (BLU); mean over the file's lines of this peptide of 103.

FREPDLPRKGLLED [YJR054W 476-489]: the normalised SPOT signal, Boehringer light units (BLU); mean over the file's lines of this peptide came to 133.

A further test has as its target T3, Yhr016c SH3 (YSC84_YEAST), P32793. In words: SPOT array.
The molecule FPYPGNPLKIINYE [YGR233C 862-875] came in with a normalised SPOT signal, Boehringer light units (BLU); mean over the file's lines of this peptide of 0.

For the molecule FRFPRLPQKKKEEL [YGL130W 106-119], the normalised SPOT signal, Boehringer light units (BLU); mean over the file's lines of this peptide is 1370.

The molecule FPYPFKPSRVGVKY [YGL131C 440-453] yielded a normalised SPOT signal, Boehringer light units (BLU); mean over the file's lines of this peptide of 260.

The molecule FSKPQEPVKAEEAE [YCR088W 393-406] had a normalised SPOT signal, Boehringer light units (BLU); mean over the file's lines of this peptide of 773.

The molecule FPFPTPPDRVALSK [YMR128W 865-878] came in with a normalised SPOT signal, Boehringer light units (BLU); mean over the file's lines of this peptide of 358.

Regarding FQPPPKPFRRSQSS [YBR108W 657-670], the normalised SPOT signal, Boehringer light units (BLU); mean over the file's lines of this peptide turned out to be 51000.

Consider FPDPNNPSKVQIRM [YAL051W 375-388], for which the normalised SPOT signal, Boehringer light units (BLU); mean over the file's lines of this peptide is 122.

Turning to FREPDLPRKGLLED [YJR054W 476-489], the normalised SPOT signal, Boehringer light units (BLU); mean over the file's lines of this peptide came to 116.

The next test deals with T4, Rvs167 SH3 (RV167_YEAST), P39743. Kind of test: SPOT array.
Regarding FPYPGNPLKIINYE [YGR233C 862-875], the normalised SPOT signal, Boehringer light units (BLU); mean over the file's lines of this peptide was 87.

As for FRFPRLPQKKKEEL [YGL130W 106-119], the normalised SPOT signal, Boehringer light units (BLU); mean over the file's lines of this peptide came out at 1200.

FPYPFKPSRVGVKY [YGL131C 440-453] had a normalised SPOT signal, Boehringer light units (BLU); mean over the file's lines of this peptide of 118.

In the case of FSKPQEPVKAEEAE [YCR088W 393-406], the normalised SPOT signal, Boehringer light units (BLU); mean over the file's lines of this peptide came out at 27.2.

FPFPTPPDRVALSK [YMR128W 865-878] had a normalised SPOT signal, Boehringer light units (BLU); mean over the file's lines of this peptide of 114.

Molecule FQPPPKPFRRSQSS [YBR108W 657-670] showed a normalised SPOT signal, Boehringer light units (BLU); mean over the file's lines of this peptide of 8580.

On to FPDPNNPSKVQIRM [YAL051W 375-388], for which the normalised SPOT signal, Boehringer light units (BLU); mean over the file's lines of this peptide was found to be 28.

With FREPDLPRKGLLED [YJR054W 476-489], the normalised SPOT signal, Boehringer light units (BLU); mean over the file's lines of this peptide worked out at 33.2.

Another test concerns the target T5, Boi2 SH3 (BOI2_YEAST), P39969. Kind of test: SPOT array.
Consider FPYPGNPLKIINYE [YGR233C 862-875], for which the normalised SPOT signal, Boehringer light units (BLU); mean over the file's lines of this peptide worked out at 39.

FRFPRLPQKKKEEL [YGL130W 106-119] came in with a normalised SPOT signal, Boehringer light units (BLU); mean over the file's lines of this peptide of 172.

In turn, FPYPFKPSRVGVKY [YGL131C 440-453] displayed a normalised SPOT signal, Boehringer light units (BLU); mean over the file's lines of this peptide of 81.9.

On to FSKPQEPVKAEEAE [YCR088W 393-406], for which the normalised SPOT signal, Boehringer light units (BLU); mean over the file's lines of this peptide was found to be 23.9.

For the molecule FPFPTPPDRVALSK [YMR128W 865-878], the normalised SPOT signal, Boehringer light units (BLU); mean over the file's lines of this peptide is 103.

Molecule FQPPPKPFRRSQSS [YBR108W 657-670] returned a normalised SPOT signal, Boehringer light units (BLU); mean over the file's lines of this peptide of 308.

In turn, FPDPNNPSKVQIRM [YAL051W 375-388] came in with a normalised SPOT signal, Boehringer light units (BLU); mean over the file's lines of this peptide of 21.5.

On to FREPDLPRKGLLED [YJR054W 476-489], for which the normalised SPOT signal, Boehringer light units (BLU); mean over the file's lines of this peptide was 41.4.
